This data set is described as follows: soluble on expression in E. coli; label from the status in PepcDB or PDB records.
“MLQDAVEDLGCELWGIECQRVGRFMTVRLFIDKDGGVTVDDCADVSRQVSAILDVEDPIADKYNLEVSSPGLDRPLFTLPQFERYIGQDIAVHLRIPVMERRKWQGKLERIEKDMITLIVDDQEQILVFGNIQKANVVAKF”: the “soluble on expression in E. coli” value is reported as “not soluble”.
With “MLQDHKITFLGAGSMAESIIAGLLSKKLLLPSQVIATNLCDEAKLTKLEDRYGICTTQNRQEAVRQGTIIFLAMKPKNIEEAIEEIRGEITEKQLFISVLAGTTTSYIETLLAHEVPVVRTMPNTSAKVGASATGLCGGRYANASHVKLATLIFTAIGTVTEVTEDKLDAVTGLAGSGPAYFYYMVEAMERAAVQSGLTESEAKAFISQTLIGTGKRLEQTSKTAEELYKEVMSPGGTTEAGLRVLEQQQMQQAIEEAITAAINRSRELGSTPSLEIKKLEHHHHHH”, the “soluble on expression in E. coli” value is on record as “soluble”.
In the case of “MLQGFRWSPHGFWVCQARFFNKKIRQRTHYEVLGVESTATLSEIKSAFYAQSKKVHPDNSSEESATASFLELKNAYDVLRRPADRRLYDYQLRGGGGRYPNGGQRYQYPNTAPQYDFSRDWSTYWSQNPDNSRSSREERDKSSREFMKSI” it was “not soluble”.
“MLRFRCILSTSRSIMSGVKEFDYLVIGGGSGGIASARRAREFGVSVGLIESGRLGGTCVNVGCVPKKVMYNCSLHAEFIRDHADYGFDVTLNKFDWKVIKKSRDEYIKRLNGLYESGLKGSSVEYIRGRATFAEDGTVEVNGAKYRGKNTLIAVGGKPTIPNIKGAEHGIDSDGFFDLEDLPSRTVVVGAGYIAVEIAGVLANLGSDTHLLIRYDKVLRTFDKMLSDELTADMDEETNPLHLHKNTQVTEVIKGDDGLLTIKTTTGVIEKVQTLIWAIGRDPLTKELNLERVGVKTDKSGHIIVDEYQNTSAPGILSVGDDTGKFLLTPVAIAAGRRLSHRLFNGETDNKLTYENIATVVFSHPLIGTVGLTEAEAVEKYGKDEVTLYKSRFNPMLFAVTKHKEKAAMKLVCVGKDEKVVGVHVFGVGSDEMLQGFAVAVTMGATKKQFDQTVAIHPTSAEELVTMRGGVKPE”: the “soluble on expression in E. coli” value is given as “not soluble”.
Turning to “MLRIDCGGQDTVTKIVAERLMMKTDGRLARMLHVLVHMGLLGGRETSERIAQMLNTNPVVVRRTLGALRESGIVVSEGGRGGGWKLIRSLDQITVLDVQRALVEGQMLPAPLSKDHPNCPVERASNAVLERAHCLAEAALRTAYSETTLAQIAETAVATK”, the “soluble on expression in E. coli” value is recorded as “not soluble”.
As to “MLRLQMTDGHISCTAVEFSYMSKISLNTPPGTKVKLSGIVDIKNGFLLLNDSNTTVLGGEVEHLIEKWELQRSLSKHNRSNIGTEGGPPPFVPFGQCVSRVQVDSRELDRRKTLQVTMPVKPTNDNDEFEKQRTAAIAEVAKSKETKTFGGGGGGARSNLNMNAAGNRNREVLQKEKSTKSEGKHEGVYRELVDEKALKHITEMGFSKEASRQALMDNGNNLEAALNVLLTSNKQKPVMGPPLRGRGKGRGRIRSEDEEDLGNARPSAPSTLFDFLESKMGTLNVEEPKSQPQQLHQGQYRSSNTEQNGVKDNNHLRHPPRNDTRQPRNEKPPRFQRDSQNSKSVLEGSGLPRNRGSERPSTSSVSEVWAEDRIKCDRPYSRYDRTKDTSYPLGSQHSDGAFKKRDNSMQSRSGKGPSFAEAKENPLPQGSVDYNNQKRGKRESQTSIPDYFYDRKSQTINNEAFSGIKIEKHFNVNTDYQNPVRSNSFIGVPNGEVEMPLKGRRIGHIKPAGPVTAVPCDDKIFYNSGPKRRSGPIKPEKILESSIPMEYAKMWKPGDECFALYWEDNKFYRAEVEALHSSGMTAVVKFIDYGNYEEVLLSNIKPIQTEAWEEEGTYDQTLEFRRGGDGQPRRSTRPTQQFYQPPRARN”, the “soluble on expression in E. coli” value was “not soluble”.
Turning to “MLRRGYKASERRRHLSERLSWHQDQALSSSIYLLREMGPTGFLLREEEPEYMDFRVFLGNPHVCNCSTFPKGGELCKHICWVLLKKFELPRNHESALQLGLGEREISDLLRGIHRVQTPQPGTNDENEHVEEDGYIKQKEIDSEDICSICQELLLEKKLPVTFCRFGCGNSIHIKCMKILANYQSTSNTSMLKCPLCRKEFAPLKLILEEFKNSSKLVAAAEKERLDKHLGIPCNNCKQFPIEGKCYKCTECIEYHLCQECFDSYCHLSHTFTFREKRNQKWRSLEKRADEVVKYIDTKNETEEKMSHFQEKQGQVYTPKHIVRSLPLQLITKNSKLLAPGYQCLLCLKAFHLGQHTRLLPCTHKFHRKCIDNWLFHKCNSCPIGGQVIYNPLTWKNSAVNGQAHQSVSNRDIIHLSKQKEPDLFIPGTGLVLKQNRLGILPSIPQCNFDELNTPQSPKDAYENTTIDNLCSIKLDNSNSKKLTYEYKISQHFPRYLQDLPTVSFGKIPSQTLLPPIVHKNIVCPTAMESPCISGKYHTSLSRVTKGCKCNNHNLKKTPATKIREDNKRSTLLPEDFNLIVNWSTAKLSLSKRYSNCMGEITRKCSHLSRQPVSHSVNTKSTELSLIIEGVQL”, the “soluble on expression in E. coli” value is “soluble”.
“MLRSSLLPFSYLYEKIINFRNTLYDKGFLKIKKLPVPVISVGNLSVGGSGKTSFVMYLADLLKDKRVCILSRGYKRKSKGTLIVSEYGNLKVSWEEAGDEPYLMAKLLPHVSVVASEDRYKGGLLALEKLSPEVFILDDGFQHRKLHRDLNILLLKKKDLKDRLLPAGNLREPLKEIRRADALVLTYQEVEPFEFFTGKPTFKMFREFCCLLNSDFEEVPFDILKEREVIAFSGLGDNGQFRKVLKNLGIKVKEFMSFPDHYDYSDFTPEEGEIYLTTPKDLIKLQGYENVFALNFKVKLEREEKLKKLIYRIFYLEHHHHHH”: the “soluble on expression in E. coli” value is on record as “soluble”.
In the case of “MLRTYFPEVVLFLHAFPLNKEMYRYQFCAFEEEGIPYVALDYPGFGDAPNLPGEYTVERLTDYVVNELRKFRVKKVIPIGDSMGGYIMFDMWRRYREMIKGFVFVATRAEADTEEGKKARYALIEKVQKEGKEFLIEAMLENQTSPATKKDENKMRTLRCIMEKATREGIVKTLKALAERKDNTDLLPSIDVPTLVIAGKDDERVTPPEIVKKIAEGIKGAKYYELENSAHLPPFENPEKFNEVVIPFVKDLLKTP” it was “soluble”; in that of “MLRTYTVLLLIAHAHVQSHFYYPCSARIFWKIHALINNTDGFVTREVKLGYFIGYKEHRSSAERKANAHGFHGFFFSEITHTFSEMIESLEHANTGAFDDIRTDSETHFFDLDDAERMIERDSIERTNNLLENSRKFKNVRDETHRGKTRRGETHRGETHRGETHRDETHRGETHRDETHRGETHRGETHRGETHRGETHLDETHRGETHRGDTHRGETHRGETHRDDTFRGETLRGETHLDETHRGETHRDETHRGETHRDETHRDETHRDETHRGETHRGETHRGETHRDDTFRGETFRGETHRDETHRGETHRDETHRGETHRGETHRGETHRGETHRGETHRGETHRGETHRGETHRDETFRGETHRGETHRGETHRDDTHRGETHRGETHRGETHRGETHRGETHRGETHRGETHRGETHRGETHRGETHRGETHCDDTHRGETRRAETHRGETHRGETHRDETHRDDTHRGETHRGETHRGETHRGETHRGETHRDETHRGETHRGDTHRGETHRGETHRGETHRGETHRGETHRGETHRGETHRGETHRGETHRDDTHRGETRRAETHRGETHRGETHRDETHRGETHRGETHRGETHRGETHRGETHRDETHRDDTFRGETLRGETHRDETHRGETHRDDTFRGETLRGETHRDETHRGETHRDETHRGETHRGETHRGETHRGETHRGETHRGETHRGETLRGETRCDDTQRGETRRAETHRGETLRGETHRDESHRGETHRGETHRGETHRGETHRGETHRDETHRDDTFRGETLRGETHRDETHRGETHRDDTFRGETLRGETHLDETHRGETHRDETHRGETHRGETHRGETHRDETHRGETHRGETHRGETHRGETHRAETFRGETHRAETHRGETNRGETHRGETHRGETHRGETNRGETHRGETHRGETHRGDTHRAETHRDETHRGETNRDETHRGETHRGETHRGDTNRGETHRGETFRGETHRGETHRGETHRGETHRGETHRGETHRGETHRGETHRDDTFRGETHRGETHCGETHRGETHRGETLRGETLRGETHRDETHRGETLRDETHRGETLRGETHRGETLRGETHRGETHRDDTFRGETLRGETHLDETHRGETHRDETHRGETHRGETHRGETHRGETHRGETHRGETHRGETHRDETHRDDTFRGETLRGETLRDETHRGETHRDDTFRGETHRDETHRGETLRGETHRDETHRDETHRDDTHRGETLRGETHLDETHRGETHRDETHRGETHLDETHRGETHRDETHRGETHRDETHRGETHRGETHVWKARENSGMF”, “not soluble”.
In the case of “MLSLKLVSQLFKQSLASGNMAIVNTAGLKYFAPPIKYQNVEQPERPKLRVIERQPQLPPNIRPPKMQKRLRYMRGPEMVHNTLLHKQYAIVATGGGRLRWGHYEMMRLTIGRKMNVNTMFATWRVPAPWQPITKKGQGQRMGGGKGAIDHYVTPIKAGRVIVEIAGKCEFVEVKQFLQQVANQLPFQATVVSQEMLDEQRVAEEEQTRQNENPFTMKYVIQNNLSGCHRWLSPVDHKWFGKHLLEHHHHHH” it was “not soluble”; in that of “MLSPEQDLNRHADPFPFNEEPSSQDLDSLRDLVTEAETLQDMVTGGLSIDAILNVLDATGEDETIWPVEKTPPDILHLLSPEYAPETAHNTVLPDLTRKEHRIIGIDSHYRINPAQHGEIYHDKQ”, “not soluble”.
In the case of “MLSPITLEALHILDAIERRGSFAAAANELNRAPSSLSYQIQKLEQDLDLMIFDRSGHRANFTEAGKLILERGRAILAATEKLVNDATLLANGWELDITIALDGIVPAANLFPMVEALGNISKTRVRIQDEILAGCWEALATGRADLLICPRIEALPQDVKAETIGTMKMIWVAAPTHYVHRRSGEFNEEAREKYRAIAIADTAREQPAMSVNILQRQPRLTVSNLDAKCKALVAGLGIGTLPLQVAQPYIDKGELKAIHGSEDLEMDIVLAWRRNQMGEAKSWCIQYLKKNWRWE” it was “not soluble”.
On to “MLSRKIIEESDIYLATSTRDPELFPLVIDHGEGVWIYDVDGNKYLDFTSGIGVNNLGWPSHPEVIKIGIEQMQKLAHAAANDFYNIPQLELAKKLVTYSPGNFQKKVFFSNSGTEAIEASIKVVKNTGRKYIIAFLGGFHGRTFGSISLTASKAVQRSIVGPFMPGVIHVPYPNPYRNPWHINGYENPSELVNRVIEFIEDYIFVNLVPPEEVAGIFFEPIQGEGGYVIPPKNFFAELQKLAKKYGILLVDDEVQMGLGRTGKLFAIENFNTVPDVITLAKALGGGIMPIGATIFRKDLDFKPGMHSNTFGGNALACAIGSKVIDIVKDLLPHVNEIGKIFAEELQGLADDVRGIGLAWGLEYNEKKVRDRIIGESFKRGLLLLPAGRSAIRVIPPLVISEEEAKQGLDILKKVIKVVK”, for which the “soluble on expression in E. coli” value was “soluble”.
Turning to “MLTDPIADMLTRIRNATRVYKESTDVPASRFKEEILRILAREGFIKGYERVDVDGKPYLRVYLKYGPRRQGPDPRPEQVIHHIRRISKPGRRVYVGVKEIPRVRRGLGIAILSTSKGVLTDREARKLGVGGELICEVW”, the “soluble on expression in E. coli” value is listed as “soluble”.
In the case of “MLTEQQFRDEIRGFVDKMNENNFHWQLKEIGKYARETHLKTLSDGRVITSETHILYNSTYQVPTIWFNFFENNGSPLPFRTVIRDVLNISETEESEASIRSRISHYEHPFMGVLYYNIHPCNTSNIMKELNTDRSYLMSWFSVYGQQIGLKLPDRVL”, the “soluble on expression in E. coli” value is given as “not soluble”.
Take “MLTFKYLLASLLILLVSSQTWGQQSYGNSNQGYGQQQQGFSGFGQGSATNRQGMTGQGLLESSYQQGYGQNQGSMQGYSQQGYGGNSQQDYGYSQSQGSGMGVQGYGGSSQSYGQQAFAQQQRPQQGFQSNGFSGQQASGSMNSFGGQGGYGQNQNGFGGQSGFSGQSGWGSNSLSSANSNGNNNQGSSSGYQNNQGRHQGQGGGHSSSSNSVMSNNGYSSNSGYGNNNGPTPSFLNNVSSSAAQDYYNIVNNKSLTTNQINEQASNWASANSVQAQYIQYETNRSAIHTQATQNVSDIINNLATVQASIEGIQSNTSSSENDRQSAFQALQQAHPMEYSVLTSLQNQHEQTQYARMGSNGNSNSNYGNSNFNSNYGNNGYNHNGNNYFESTTATSAATKKKTTKATSG”: the “soluble on expression in E. coli” value is “not soluble”.

(Values after the DeepSol protein solubility set.)
